Laboratory results taken from FireProtDB (doi:10.1093/jb/mvq079).

B1: Divalent-cation tolerance protein CutA, P69488 (parent)
chain: MLDEKSSNTASVVVLCTAPDEATAQDLAAKVLAEKLAACATLIPGATSLYYWEGKLEQEYEVQMILKTTVSHQQALLECLKSHHPYQTPELLVLPVTHGDTDYLSWLNASLR

Variants of: B1
Conditions: Escherichia coli (strain K12), structure 3X3U, whole UniProt chain shown; for Tm / change of melting temperature, mutant - wild type (higher = more stable): pH 9, Thermal, DSC, glycine Buffer, transition: 2, reversible: no; for denaturant midpoint (higher = more stable) / ddG of mutation (higher = less stable): pH 8, 37 °C, GdnHCl, CD, Tris-HCl, reversible: yes

Variant | Tm | change of melting temperature, mutant - wild type (higher = more stable) | denaturant midpoint (higher = more stable) | ddG of mutation (higher = less stable)
G45Q | 82.1 °C | -7.8 °C | – | –
S11V E61V Q73V | – | – | 4.67 M | –
E59L | 100 °C | 10.3 °C | 2.96 M | -2.89 kcal/mol
E59Q | 98.3 °C | 8.4 °C | – | –
E59K | 104 °C | 14.3 °C | 3.01 M | -3.92 kcal/mol
Y86D | 76.8 °C | -13.1 °C | 2.67 M | 6.38 kcal/mol
E61V | 103 °C | 13.5 °C | 3.29 M | -3.42 kcal/mol
E61T | 98.6 °C | 8.7 °C | 2.99 M | -3.15 kcal/mol
E61H | 94.3 °C | 4.4 °C | – | –
Q73V | 94 °C | 4.1 °C | 3.4 M | –
Y60T | 91.9 °C | 2 °C | – | –
S11V E59K E61T | – | – | 3.48 M | –
S11V E61T Q73V | 114 °C | 23.7 °C | 4.2 M | –
E59K E61V | 104 °C | 14.4 °C | 3.24 M | -5.47 kcal/mol
S11V E61T | 112 °C | 22.4 °C | 3.48 M | –
S11V E61V | 114 °C | 23.6 °C | 3.8 M | –
S11I | 103 °C | 12.8 °C | – | –
S11V | 105 °C | 15.1 °C | 3.31 M | –
S11A | 106 °C | 16.5 °C | – | –
